According to US20150031754, “APTAMER MODULATORS OF ESTROGEN RECEPTORS” (RESEARCH FOUNDATION OF STATE UNIVERSITY OF NEW YORK AT …, published 2015):

Assays:
SNAP-tag (control) = target: T1, SNAP-tag (control) (UniProt P16455); assay: pulldown; details: SNAP-tag control background
T1 sequence: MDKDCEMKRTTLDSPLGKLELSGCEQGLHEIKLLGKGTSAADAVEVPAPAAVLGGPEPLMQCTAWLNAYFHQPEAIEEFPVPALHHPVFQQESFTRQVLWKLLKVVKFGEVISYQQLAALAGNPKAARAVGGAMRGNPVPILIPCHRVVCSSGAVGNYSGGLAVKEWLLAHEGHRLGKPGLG

[1] = target: T2, Human estrogen receptor alpha (hERα), full-length, unliganded (Homo sapiens, UniProt P03372 P03372:1-595); assay: EMSA; 200 nM ERα; two shifted bands; details: tags: none stated; baculovirus/insect cells; Invitrogen P2187 or EMD4 Biosciences 330655; label: labeled
[2] = target: T2, Human estrogen receptor alpha (hERα), …; assay: EMSA; 200 nM ERα; one complex; BSA and yeast RNA competitors; details: tags: none stated; baculovirus/insect cells; Invitrogen P2187 or EMD4 Biosciences 330655; label: labeled
[3] = target: T2, Human estrogen receptor alpha (hERα), …; assay: filter; same buffer, 37 C; Hill n>1; details: tags: none stated; baculovirus/insect cells; Invitrogen P2187 or EMD4 Biosciences 330655; label: 32P-CTP internal
Description: The dissociation constant (Kd) of the AptER-1, -2, -3, and -4 were measured using a nitrocellulose filter binding assay. A constant trace amount of [γ-³²P]-CTP incorporated RNA aptamer (˜0.1 nM) was titrated with increasing amounts of the target protein ranging from 5 to 150 nM. The binding activity at each concentration was determined as % binding, by calculating the radioactive signal of the RNA-protein complex retained on the filter as a percentage of the signal at the highest protein concentration (saturated) used. The assays were performed in triplicates for each aptamer. A binding curve was constructed using Sigma Plot 9.0.1, with average binding affinity (% binding) as a function of the protein concentration using a sigmoidal equation (Hill equation, 3 parameters). Apparent Kd was the protein concentration where half of the maximal binding activity was achieved, and were calculated from the data points by using Sigma Plot. […] The first 3 aptamers were isolated in in vitro selection I, and their affinity rank explains the relative abundance in the final selected library. More specifically, it is believed that AptER-1 dominated the final selected pool because it was the strongest binder. AptER-4 was the weakest binder, and would not have been easily identified in the selection I libraries.

[4] = target: Human estrogen receptor beta (hERβ) (Homo sapiens, UniProt Q92731 Q92731:1-530); assay: EMSA; affinity similar to hERα; details: tags: none stated; baculovirus/insect cells; EMD4 Biosciences 330657; label: 32P-CTP internal
Description: FIGS. 9A-B illustrate the binding specificity of AptER-1, -2 and -3. […] Radiolabeled AptER-1, -2 and -3 (0.1 nM) were incubated with 20 nM hERα, 200 nM hERβ, or 200 μg/ml HeLa nuclear extract (NE). Binding reactions were resolved on a 4.8% polyacrylamide gel (acrylamide:bis-acrylamide=37.5:1) in ¼×TBE buffer. […] Radiolabeled AptER-1, -2 and -3 (0.1 nM) were incubated with 20 nM or 40 nM hERα, or hERβ. Binding reactions were resolved as described above.
To examine the binding specificity of the first set of isolated aptamers, AptER-1, -2 and -3, proteins were presented at high concentrations in ESMA, including hERβ at 200 nM or HeLa nuclear extract at 200 μg/ml, which should allow detection of weak binding activity. […] This was confirmed in a second EMSA using the two ER subtypes at the same concentrations (FIG. 9B). Furthermore, the binding affinities to the two forms were very close, as shown in the EMSA, and this was more carefully compared with the binding curves of AptER-1 (FIG. 8A). […] In the presence of HeLa nuclear extract (FIG. 9A), no specific shifted band could be observed.

[5] = target: T2, Human estrogen receptor alpha (hERα), …; assay: EMSA; not competed by AptER-1, -2, -3 or -4; competed by cold ERE; details: tags: none stated; baculovirus/insect cells; Invitrogen P2187 or EMD4 Biosciences 330655; label: 5'-32P; hairpin with GAAA tetraloop, ERE in stem
Description: (§1) No binding activity to RNase inhibitor (control) or DBD & RNase inhibitor was detected. The binding reactions were resolved on the same type of gel as above. […] End-radiolabeled ERE-50mer at 5 nM was mixed with 100× or 400× more concentrated unlabeled competitors ERE-50mer, AptER-1, -2 and -3 RNA or an early generation pool in hERα selection G1 before addition of hERα (40 nM). Only cold ERE-50mer disrupted radioactive ERE-hERα complex.
Whether the aptamers bind to the DNA binding site on the full-length hERα was tested in cross-competition assays using ERE-50mer as a specific competitor. Radiolabeled ERE-50mer was competed with 100× or 400× more concentrated nonradioactive competitors ERE-50mer, AptER-1, -2, -3 or Generation 1 pool of hERα selection G1 (see Example 1). Radiolabeled ERE-50mer at 5 nM was mixed with the competitors before the addition of hERα at 50 nM. The binding reaction was set up as described in the Materials and Methods, and electrophorised in a 4.8% polyacrylamide gel (acrylamide:bis-acrylamide=50:1) in ½ ΔTGB. ERE-50mer served as a positive control of competition, whereas the G1 pool was a negative control. […] This agreed with the result from a second cross-competition assay between radiolabeled AptER-1 and unlabeled ERE-50mer for binding to human ERα (FIG. 9A).

hERα DNA-binding domain = hERα DNA-binding domain (Homo sapiens, UniProt P03372 P03372:180-268); assay: EMSA; 100-400 nM DBD, 5 nM DNA; details: tags: N-terminal His6; E. coli BL21(DE3); label: 5'-32P; hairpin with GAAA tetraloop, ERE in stem
Description: as §1
Class I aptamers bound with similar affinities to both subtypes of ER, which share the highest homology (96%) in the DBD. This raised the possibility that the target site of Class I aptamers was located within the DBD. Whether the aptamers bind to the DBD was tested in binding assays using a recombinant hERα-DBD. It was expressed as a His₆-tagged fusion protein in E. coli BL21 (DE3) and purified as described in the Materials and Methods. To verify its ERE-binding capability, a DNA EMSA was performed. DNA oligo ERE-50mer contains a GAAA tetra loop, which forces the oligo to form a hairpin. A copy of Xenopus laevis vitellogenin A2 ERE (5′-[…]-3′, SEQ ID NO: 73) was presented in the stem of a hairpin. […] However, in both EMSA (FIG. 11B) and filter-binding assay, no association was detected between AptER-1 and DBD. […]

[6] = target: T2, Human estrogen receptor alpha (hERα), …; assay: EMSA; about half shifted below 15 nM; more than two-fold stronger than monomer; details: tags: none stated; baculovirus/insect cells; Invitrogen P2187 or EMD4 Biosciences 330655; label: 32P-CTP internal; two AptER-1(53nt) units on three-way junction of H. marismortui 5S RNA
[7] = target: T2, Human estrogen receptor alpha (hERα), …; assay: EMSA; 35 nM hERα; fully active; details: tags: none stated; baculovirus/insect cells; Invitrogen P2187 or EMD4 Biosciences 330655; label: 32P internal; stem-loop
[8] = target: T2, Human estrogen receptor alpha (hERα), …; assay: EMSA; 25 nM hERα; no difference from sB63; details: tags: none stated; baculovirus/insect cells; Invitrogen P2187 or EMD4 Biosciences 330655; label: 32P internal
[9] = target: T2, Human estrogen receptor alpha (hERα), …; assay: EMSA; 10 mM MgCl2, 37 C binding; details: tags: none stated; baculovirus/insect cells; Invitrogen P2187 or EMD4 Biosciences 330655; label: 32P internal; stem-loop
[10] = target: T2, Human estrogen receptor alpha (hERα), …; assay: EMSA; no binding; method EMSA or filter; details: tags: none stated; baculovirus/insect cells; Invitrogen P2187 or EMD4 Biosciences 330655

T2 sequence (P03372 whole entry, one chain of several): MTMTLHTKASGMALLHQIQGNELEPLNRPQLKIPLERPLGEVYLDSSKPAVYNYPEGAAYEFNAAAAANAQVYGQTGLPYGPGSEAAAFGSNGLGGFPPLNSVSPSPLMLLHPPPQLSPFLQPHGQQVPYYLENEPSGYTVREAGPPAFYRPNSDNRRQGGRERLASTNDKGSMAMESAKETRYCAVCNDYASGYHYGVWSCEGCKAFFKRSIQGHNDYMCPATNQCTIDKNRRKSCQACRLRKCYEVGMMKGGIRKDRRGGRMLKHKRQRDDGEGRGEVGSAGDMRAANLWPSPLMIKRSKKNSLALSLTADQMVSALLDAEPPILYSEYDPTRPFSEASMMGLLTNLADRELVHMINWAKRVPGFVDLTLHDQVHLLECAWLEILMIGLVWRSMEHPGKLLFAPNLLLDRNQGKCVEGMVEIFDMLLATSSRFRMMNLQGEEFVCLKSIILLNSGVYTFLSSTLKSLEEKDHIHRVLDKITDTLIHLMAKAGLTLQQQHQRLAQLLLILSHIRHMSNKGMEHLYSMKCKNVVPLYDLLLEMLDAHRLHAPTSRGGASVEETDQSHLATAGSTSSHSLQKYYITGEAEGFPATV
Human estrogen receptor beta (hERβ), sequence (Q92731 whole entry, one chain of several): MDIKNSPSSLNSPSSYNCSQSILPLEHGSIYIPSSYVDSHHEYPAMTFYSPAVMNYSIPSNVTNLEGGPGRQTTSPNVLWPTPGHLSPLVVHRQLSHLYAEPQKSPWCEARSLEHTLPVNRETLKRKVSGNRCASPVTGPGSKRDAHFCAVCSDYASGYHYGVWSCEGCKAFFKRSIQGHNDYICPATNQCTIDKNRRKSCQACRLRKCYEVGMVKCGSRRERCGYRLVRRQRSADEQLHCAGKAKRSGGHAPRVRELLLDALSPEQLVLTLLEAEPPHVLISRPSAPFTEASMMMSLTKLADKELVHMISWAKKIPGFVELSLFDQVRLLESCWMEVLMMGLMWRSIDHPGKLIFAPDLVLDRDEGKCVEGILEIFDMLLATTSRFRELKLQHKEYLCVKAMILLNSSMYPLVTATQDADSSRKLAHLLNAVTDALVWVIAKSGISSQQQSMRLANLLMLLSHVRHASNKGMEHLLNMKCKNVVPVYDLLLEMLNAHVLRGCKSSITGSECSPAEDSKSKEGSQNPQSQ
hERα DNA-binding domain, sequence (P03372 180-268, one chain of several): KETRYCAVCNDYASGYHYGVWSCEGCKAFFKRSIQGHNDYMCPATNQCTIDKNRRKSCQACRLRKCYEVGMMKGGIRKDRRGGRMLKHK

GCGUGACGGGCACCGCGAACAAAACGCAAGACAGAGUGCCGACAAGAGCACUACAAGCCCGUCCAUACUCCGGCACCGCGAACAAAACGCAAGACAGAGUGCCGACAAGAGCACUAACAGCCGGAGGCGCUU [AptER-1x2 (expressed dimer)]
binding signal (fold (control reference)) (SNAP-tag (control)): 1

B1: ERL5-4 (ssRNA)
RNA: GGGAGAAUUCAACUGCCAUCUAACAGCCAAGUAAGCGACAACGACAAUCAAUGACGCGAACAAUCCGAAAGAACUACAAGCUUCUGGACUCGGU
binding result [1]: binds

B2: ERL5-5 (ssRNA)
RNA: GGGAGAAUUCAACUGCCAUCUACAGAAGGACCGCGAGGGUAAAAACCACGCACGACAGAGUAUAACAAAACAACUACAAGCUUCUGGACUCGGU
binding result [1]: binds

B3: ERL5-1 (ssRNA)
RNA: GGGAGAAUUCAACUGCCAUCUACAAGCCAAGCAAGCGAGCAAAAAACGCGAGCAUCCGAGCUCCAAGACGUACUACAAGCUUCUGGACUCGGU
binding result [2]: binds

B4: AptER-2 (ssRNA)
RNA: GGGAGAAUUCAACUGCCAUCUAGGCACACGCGAGAUAGAGCGAGGCCUCCAAAAAUGGCCACGCCAGGAAGCAAGUACUACAAGCUUCUGGACUCGGU
Kd [3]: 21 nM | binding result [4]: binds

AGTCAGGTCACAGTGACCTGATCGAAAGATCAGGTCACTGTGACCTGACT (structured_DNA) [ERE-50mer]
binding result [5]: binds | binding result (hERα DNA-binding domain): binds

B5: AptER-3 (ssRNA)
RNA: GGGAGAAUUCAACUGCCAUCUAGGCGACCCAGGGCCGGGACGCAAAGCAGCCAAAACAGACGGCCCCAGUCAGGGAGUUACUACAAGCUUCUGGACUCGGU
Kd [3]: 30 nM | binding result [4]: binds

B6: AptER-1x2(138nt) dimer (ssRNA)
RNA: GGAUCCGUGACGGGCACCGCGAACAAAACGCAAGACAGAGUGCCGACAAGAGCACUACAAGCCCGUCCAUACUCCGGCACCGCGAACAAAACGCAAGACAGAGUGCCGACAAGAGCACUAACAGCCGGAGGCGGAUCC
Kd [6]: < 15 nM

B7: AptER-1(53nt) (ssRNA)
RNA: GGGCACCGCGAACAAAACGCAAGACAGAGUGCCGACAAGAGCACUACAAGCCC
binding result [7]: binds

B8: sB65 (65nt truncated clone B65) (ssRNA)
RNA: GGGCAGAAGCACCGCGAACAAAACGCAAGACAGAGUGCCGACAAGAGCACUACAAGCUUCUGCCC
binding result [8]: binds

B9: AptER-1(65nt) (sB63) (ssRNA)
RNA: GGGCAGAGGCACCGCGAACAAAACGCAAGACAGAGUGCCGACAAGAGCACUACAAGCUUCUGCCC
Kd [9]: ~30 nM

GGGCACCGCGAACAAAACGCAAGACAGAGUGCCC (ssRNA) [AptER-1 34nt version]
binding result [10]: no binding

B10: ERL5-6 (ssRNA)
RNA: GGGAGAAUUCAACUGCCAUCUAAAUGAAAGGACGCACACUACGUGUCCUACAAACACAGAAACAAAAACCGAACUACAAGCUUCUGGACUCGGU
binding result [1]: binds
